Data: the supplement of paper PMC10567573

B1: DLC1 (parent)
chain: RDAIEALCRRLNTLNKCAVMKLEI
B2: VDR (parent)
chain: VTLELSQLSMLPHLADLVSYSIQK

Variants of: B1
Assay: protein stability index of a GFP-peptide fusion (GPS, HEK-293T) (PSI 1-6); higher = more stable
Conditions: c terminus: a fixed tail appended
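Further: lentivirally expressed fusions sorted by FACS into six bins by GFP to DsRed ratio, PSI derived from sequencing read proportions per bin multiplied by bin number.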

Protein stability index, by site and new letter:
N12: Q 1.45; R 1.79; S 1.77; T 2.2; V 2.37; Y 3.36
T13: C 2.26; E 1.7; H 2.02; I 2.04; K 1.55; L 2.33; N 2.28; R 2.35; S 2.09; Y 2.79
L14: A 1.68; C 2.35; D 1.37; E 2.98; H 2.74; I 4.47; K 1.88; M 1.49; P 2.09; Q 2.24; S 3.43; V 2.93; W 2.22; Y 3.26
N15: A 3.2; D 3.27; E 1.44; F 3.09; G 2.33; H 2.39; I 3.36; K 2.63; L 3.76; P 1.75; Q 5.09; T 1.98; V 3.72; Y 1.24
K16: A 2.39; C 2.44; D 1.76; E 2.45; F 3.89; G 3.19; I 1.93; L 1.48; M 2.58; N 2.96; Q 3.29; T 2.71; V 2.29; W 2.25
C17: A 1.16; D 3.14; E 2; H 4.06; I 3.57; K 2.36; L 2.35; M 1.63; N 1.83; P 1.07; Q 1.42; R 1.78; S 2.17; T 3.57; V 4.14; Y 3.7
A18: C 2.83; D 2.78; E 2.7; F 4.02; H 2.23; I 3.66; L 2.58; P 1.82; Q 2.02; R 1.07; V 3.7; W 2.66; Y 3.01
V19: A 3.74; D 2.58; F 1.62; G 1.6; H 3.85; I 1.67; L 3.2; N 1.89; Q 1.84; T 1.04; W 3.62; Y 2.76
M20: A 1.01; C 2.27; D 1.67; E 1.49; F 3.51; G 1.85; H 3.39; K 1.49; N 1.88; P 2.02; Q 1.45; R 1.27; S 2.64; T 2.35
K21: A 2.6; C 1.39; E 1.73; G 1.97; I 2.1; L 2.53; M 1.69; N 1.61; P 1.33; Q 4.24; R 2.88; S 1.73; T 2.06; Y 2.5
L22: C 2.69; D 1.5; E 1.93; G 1.5; H 1.44; I 1.89; K 1.91; M 3.06; N 1.54; P 1.43; Q 2.59; S 1.45; T 2.54; Y 2.29
E23: A 2.38; C 2.07; D 1.52; F 2.3; G 2.23; H 2.39; I 1.47; K 2.65; N 3.12; P 2.27; Q 4.6; W 3.37; Y 1.36
I24: A 1.18; C 3.03; D 1.52; E 1.36; F 2.04; G 1.13; H 1.73; K 1.87; L 2.75; M 2.39; N 1.63; P 1.71; Q 1.75; R 1.5; S 1.91; T 2.21; V 2.45; W 1.66; Y 1.29

Variants of: B2
Assay: as above
Conditions: c terminus: a fixed tail appended

Protein stability index: each site, then its substitutions
V1: A 1.63; D 2.29; E 1.9; F 2.61; G 2.5; H 2.44; K 1.86; L 4.07; M 2.18; N 1.81; P 1.58; Q 2.66; R 3.03; S 1.99; T 3; W 2.08; Y 2.2
T2: C 4.12; D 1.6; E 2.22; F 3.02; G 1.76; H 2.06; I 4.5; K 2.4; L 1.75; M 2.16; N 3.11; P 1.42; Q 2.22; R 4.52; S 3.12; V 3.63; W 2.48
L3: A 2.21; C 1.99; D 2.09; E 1.84; F 1.95; G 2.67; H 1.6; I 2.53; K 1.16; M 3.15; N 1.5; P 2.49; Q 1.96; R 1.53; S 1.5; T 1.97; V 2.45; W 4.09; Y 2.81
E4: A 2.69; C 3.83; D 3.44; F 2.88; G 2.6; H 2.02; I 3.27; K 3.75; L 4.64; M 3.22; N 2.66; P 3.67; Q 3.55; R 3.12; T 2.67; V 3.1; Y 2.58
L5: A 2.12; C 2.54; D 2.1; E 1.71; G 2.07; H 2.33; I 3.82; K 1.85; M 4.44; N 1.93; P 1.86; Q 2.01; R 2.5; S 1.92; T 2.04; V 2.65; W 2.81; Y 3.55
S6: A 2.88; C 2.65; D 2.16; E 2.77; F 2.88; G 3.13; H 3.94; I 2.48; K 1.81; L 3.3; M 2.06; N 2.58; P 2.29; Q 2.54; R 1.52; T 1.28; V 3.64; W 2.88; Y 2.27
Q7: A 3.54; C 2.21; D 2.45; E 3.06; G 1.33; H 3.22; I 2.06; K 2.59; L 3.66; M 3.99; N 2.84; P 2.45; R 2.33; S 2.99; T 3.45; V 2.68; W 2.56; Y 2.81
L8: A 2.74; C 2.43; D 2.91; E 1.65; G 1.62; H 2.92; K 3.33; M 3.27; N 2.35; P 2.33; Q 1.54; R 2.25; S 2.16; T 2.85; V 3.88; W 1.82; Y 2.47
S9: A 2.74; C 2.37; D 2.83; E 3.48; F 2.67; G 3.56; H 3.83; I 3.23; K 3.79; L 2.79; M 3.43; N 3.47; P 1.97; Q 2.24; R 3.06; V 2.74; W 3.43; Y 2.63
M10: A 2.73
